Literature values as cited in publication PMC11817637.

Tests used:
RyR1 = RyR1 (UniProt P21817)
[1] = target: RyR1 (Oryctolagus cuniculus) (UniProt P11716)
UniProt P11716, sequence (P11716 whole entry): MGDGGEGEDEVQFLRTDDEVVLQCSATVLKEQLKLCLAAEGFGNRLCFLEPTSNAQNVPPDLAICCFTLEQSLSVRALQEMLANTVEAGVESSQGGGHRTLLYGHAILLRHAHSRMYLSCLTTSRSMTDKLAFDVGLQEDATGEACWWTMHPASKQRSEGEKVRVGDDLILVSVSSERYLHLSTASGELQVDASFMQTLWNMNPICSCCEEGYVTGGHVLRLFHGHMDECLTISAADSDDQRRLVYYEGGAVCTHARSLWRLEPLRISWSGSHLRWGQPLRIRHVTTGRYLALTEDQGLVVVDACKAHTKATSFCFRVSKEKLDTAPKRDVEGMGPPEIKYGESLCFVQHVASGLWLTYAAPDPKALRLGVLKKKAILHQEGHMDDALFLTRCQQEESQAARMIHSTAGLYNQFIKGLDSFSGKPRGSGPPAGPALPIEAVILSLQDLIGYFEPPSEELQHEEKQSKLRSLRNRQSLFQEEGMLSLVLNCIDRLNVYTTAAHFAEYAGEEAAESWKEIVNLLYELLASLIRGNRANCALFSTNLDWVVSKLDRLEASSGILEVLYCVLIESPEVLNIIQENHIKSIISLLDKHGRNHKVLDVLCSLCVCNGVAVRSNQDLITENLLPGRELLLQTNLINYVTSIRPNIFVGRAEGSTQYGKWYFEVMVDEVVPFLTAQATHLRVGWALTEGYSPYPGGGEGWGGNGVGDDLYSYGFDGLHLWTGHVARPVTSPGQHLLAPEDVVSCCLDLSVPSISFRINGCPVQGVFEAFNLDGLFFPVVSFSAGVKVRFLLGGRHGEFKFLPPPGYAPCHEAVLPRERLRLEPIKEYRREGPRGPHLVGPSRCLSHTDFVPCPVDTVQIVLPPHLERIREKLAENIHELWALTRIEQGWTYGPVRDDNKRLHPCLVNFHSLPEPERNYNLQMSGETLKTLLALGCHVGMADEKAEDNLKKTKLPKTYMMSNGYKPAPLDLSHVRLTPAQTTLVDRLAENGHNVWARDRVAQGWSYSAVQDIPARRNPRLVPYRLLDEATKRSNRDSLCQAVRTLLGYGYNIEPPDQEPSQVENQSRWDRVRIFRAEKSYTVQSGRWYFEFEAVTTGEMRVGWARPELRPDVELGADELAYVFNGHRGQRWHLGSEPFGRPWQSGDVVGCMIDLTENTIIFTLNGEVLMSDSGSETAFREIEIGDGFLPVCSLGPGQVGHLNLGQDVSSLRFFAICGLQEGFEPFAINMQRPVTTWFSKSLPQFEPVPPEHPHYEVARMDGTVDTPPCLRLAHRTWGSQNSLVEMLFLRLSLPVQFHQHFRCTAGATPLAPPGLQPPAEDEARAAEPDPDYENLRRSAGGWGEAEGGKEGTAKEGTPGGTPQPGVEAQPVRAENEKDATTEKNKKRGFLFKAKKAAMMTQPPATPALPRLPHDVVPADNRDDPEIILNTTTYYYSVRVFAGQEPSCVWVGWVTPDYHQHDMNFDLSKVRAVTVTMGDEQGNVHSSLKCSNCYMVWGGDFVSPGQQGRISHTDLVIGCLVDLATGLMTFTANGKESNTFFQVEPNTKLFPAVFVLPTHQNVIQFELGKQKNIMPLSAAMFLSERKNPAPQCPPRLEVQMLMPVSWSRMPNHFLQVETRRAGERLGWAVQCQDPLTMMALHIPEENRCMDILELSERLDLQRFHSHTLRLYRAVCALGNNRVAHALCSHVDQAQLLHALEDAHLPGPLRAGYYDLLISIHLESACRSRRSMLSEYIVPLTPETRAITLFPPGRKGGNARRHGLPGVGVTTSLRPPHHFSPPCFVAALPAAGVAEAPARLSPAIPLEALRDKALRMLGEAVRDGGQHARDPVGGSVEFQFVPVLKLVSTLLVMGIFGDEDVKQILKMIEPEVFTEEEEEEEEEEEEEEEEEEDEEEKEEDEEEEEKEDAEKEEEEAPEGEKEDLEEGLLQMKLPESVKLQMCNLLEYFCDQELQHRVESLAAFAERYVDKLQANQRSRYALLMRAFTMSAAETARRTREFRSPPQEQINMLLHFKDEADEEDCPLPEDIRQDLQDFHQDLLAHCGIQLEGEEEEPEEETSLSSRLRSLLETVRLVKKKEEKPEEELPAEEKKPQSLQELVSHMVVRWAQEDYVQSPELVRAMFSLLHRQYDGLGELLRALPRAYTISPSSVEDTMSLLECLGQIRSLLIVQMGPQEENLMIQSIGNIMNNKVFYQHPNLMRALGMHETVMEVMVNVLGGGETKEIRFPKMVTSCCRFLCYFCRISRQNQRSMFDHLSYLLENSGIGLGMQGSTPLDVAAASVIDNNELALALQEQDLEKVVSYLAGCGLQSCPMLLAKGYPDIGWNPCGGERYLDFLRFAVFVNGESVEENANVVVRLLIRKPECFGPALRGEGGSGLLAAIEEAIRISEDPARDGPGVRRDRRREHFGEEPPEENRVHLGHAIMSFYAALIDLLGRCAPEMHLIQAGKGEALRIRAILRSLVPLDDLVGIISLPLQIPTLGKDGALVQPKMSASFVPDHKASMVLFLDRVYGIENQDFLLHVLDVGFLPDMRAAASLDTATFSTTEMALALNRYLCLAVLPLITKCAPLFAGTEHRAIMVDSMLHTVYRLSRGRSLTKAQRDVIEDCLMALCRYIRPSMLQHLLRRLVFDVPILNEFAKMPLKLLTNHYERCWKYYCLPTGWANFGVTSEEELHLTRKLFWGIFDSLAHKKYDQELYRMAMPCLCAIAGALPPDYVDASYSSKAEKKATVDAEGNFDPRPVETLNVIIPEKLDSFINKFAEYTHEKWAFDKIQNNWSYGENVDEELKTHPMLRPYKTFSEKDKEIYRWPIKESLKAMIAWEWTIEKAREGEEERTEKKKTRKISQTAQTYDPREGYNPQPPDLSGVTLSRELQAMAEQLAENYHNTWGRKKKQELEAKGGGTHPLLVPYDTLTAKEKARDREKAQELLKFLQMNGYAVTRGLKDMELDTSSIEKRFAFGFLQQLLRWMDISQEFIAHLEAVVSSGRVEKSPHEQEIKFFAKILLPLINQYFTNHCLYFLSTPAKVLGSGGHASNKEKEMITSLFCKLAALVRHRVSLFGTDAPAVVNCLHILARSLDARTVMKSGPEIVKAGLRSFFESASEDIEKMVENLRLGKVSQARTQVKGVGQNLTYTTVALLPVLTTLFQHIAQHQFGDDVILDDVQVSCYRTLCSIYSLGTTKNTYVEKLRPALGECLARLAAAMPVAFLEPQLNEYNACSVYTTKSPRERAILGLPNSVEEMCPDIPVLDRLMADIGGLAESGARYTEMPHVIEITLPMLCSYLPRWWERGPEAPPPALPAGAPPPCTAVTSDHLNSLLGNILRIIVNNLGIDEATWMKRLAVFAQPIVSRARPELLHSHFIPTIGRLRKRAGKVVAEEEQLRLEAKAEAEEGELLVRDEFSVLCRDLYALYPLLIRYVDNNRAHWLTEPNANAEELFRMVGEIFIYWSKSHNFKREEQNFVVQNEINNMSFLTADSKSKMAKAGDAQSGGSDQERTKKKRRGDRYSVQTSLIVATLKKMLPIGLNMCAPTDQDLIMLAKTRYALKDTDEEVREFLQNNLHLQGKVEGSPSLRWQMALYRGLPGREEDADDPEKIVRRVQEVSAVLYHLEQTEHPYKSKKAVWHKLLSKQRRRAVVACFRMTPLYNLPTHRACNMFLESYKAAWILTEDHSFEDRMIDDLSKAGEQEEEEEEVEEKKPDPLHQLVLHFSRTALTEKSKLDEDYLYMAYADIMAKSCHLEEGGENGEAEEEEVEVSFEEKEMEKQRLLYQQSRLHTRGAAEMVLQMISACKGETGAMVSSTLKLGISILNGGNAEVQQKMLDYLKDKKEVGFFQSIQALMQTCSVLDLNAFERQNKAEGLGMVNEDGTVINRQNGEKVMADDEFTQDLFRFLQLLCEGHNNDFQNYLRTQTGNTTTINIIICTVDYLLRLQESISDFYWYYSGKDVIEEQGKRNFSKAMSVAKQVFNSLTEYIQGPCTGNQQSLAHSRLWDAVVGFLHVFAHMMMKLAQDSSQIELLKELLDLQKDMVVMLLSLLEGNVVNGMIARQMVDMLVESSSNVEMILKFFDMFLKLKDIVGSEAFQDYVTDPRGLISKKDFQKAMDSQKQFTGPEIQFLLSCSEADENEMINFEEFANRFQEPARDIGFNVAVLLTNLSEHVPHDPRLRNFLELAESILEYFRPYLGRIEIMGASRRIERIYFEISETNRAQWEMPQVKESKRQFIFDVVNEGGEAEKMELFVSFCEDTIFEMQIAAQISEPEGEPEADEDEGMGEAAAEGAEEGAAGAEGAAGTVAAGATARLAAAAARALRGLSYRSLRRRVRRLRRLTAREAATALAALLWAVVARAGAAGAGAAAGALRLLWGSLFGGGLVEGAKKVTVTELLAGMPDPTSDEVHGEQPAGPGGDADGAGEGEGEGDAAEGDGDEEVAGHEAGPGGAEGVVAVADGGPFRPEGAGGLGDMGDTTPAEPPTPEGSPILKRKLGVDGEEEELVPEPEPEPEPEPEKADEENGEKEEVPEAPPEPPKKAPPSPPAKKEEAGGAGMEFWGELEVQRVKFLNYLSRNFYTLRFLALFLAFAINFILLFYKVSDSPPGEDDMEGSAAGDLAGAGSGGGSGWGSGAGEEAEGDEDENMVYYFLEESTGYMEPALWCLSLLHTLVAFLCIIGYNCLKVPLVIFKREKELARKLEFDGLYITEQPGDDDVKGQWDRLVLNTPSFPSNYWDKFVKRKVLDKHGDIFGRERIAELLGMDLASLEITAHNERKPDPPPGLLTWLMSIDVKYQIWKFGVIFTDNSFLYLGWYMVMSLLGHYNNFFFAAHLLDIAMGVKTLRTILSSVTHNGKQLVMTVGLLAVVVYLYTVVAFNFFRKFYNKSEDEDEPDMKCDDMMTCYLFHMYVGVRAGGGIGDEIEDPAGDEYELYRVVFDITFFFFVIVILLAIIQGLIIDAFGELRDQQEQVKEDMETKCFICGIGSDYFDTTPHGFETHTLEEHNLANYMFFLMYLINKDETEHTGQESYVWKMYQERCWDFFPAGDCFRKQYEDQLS

| Kd (RyR1) [nM] | Kd [1] [nM] | Substance |
| --- | --- | --- |
| 100 |  | FKBP12 (from UniProt P62942) |
|  | 2.6 | FKBP12 (from UniProt P62943) |
